This note sets out measurements from patent US20010016194A1 (published 2001).

Test [1] deals with T1, Raf-1 proteins present in human T-cell lysates (human, UniProt P04049 1-648).
T1 construct: Endogenous protein within a cell lysate, so other lysate proteins were present; also called T-cell derived Raf-1 proteins; cellular Raf-1 serine/threonine kinase
As to the kind of experiment: anti-FLAG bead pull-down from T-cell lysate, anti-Raf-1 immunoblot.

A further test has as its target T2, (His)6-Raf-1 protein (UniProt P04049 1-648, limits assumed).
T2 construct: Made in M15 bacteria and purified on Ni-NTA, or used as bacterial lysate; also called bacterially produced (His)6-Raf-1
Description: totally cell-free pull-down on anti-FLAG beads, anti-Raf-1 immunoblot. An excerpt: Eluted proteins were separated on SDS-PAGE, transferred onto Immobilon membrane and blotted with anti-Raf-1 antibody.
For orientation: Immunoblotting shows a protein as a band on a membrane.

Test [2] concerns the target T1, Raf-1 proteins present in human T-cell …. Description: anti-FLAG affinity column pull-down from 35S-labelled human T-cell lysate, anti-SP-63 immunoblot.

B1: FLAG-HMK-IL-2Rβ chain containing only the proline rich C-terminal (CT+) (receptor)
chain: QPLSGEDDAYCTFPSRDDLLLFSPSLLGGPSPPSTAPGGSGAGEERMPPSLQERVPRDWDPQPLGPPTPGVPDLVDFQPPPELVLREAGEEVPDAGPREGVSFPWSRPPGQGEFRALNARLPLNTDAYLSLQELQGQDPTHLV
notes: How it was constructed is not described; also called FLAG-HMK-IL-2Rβ chain CT+ proteins; not shown: 17 amino acid FLAG-HMK tag
Take B1: the binding result in test [1] is recorded as “no binding”.

B2: FLAG-HMK-IL-2Rβ chain mutant lacking both acidic domain and proline rich C-terminal (A-CT-) (receptor)
chain: NCRNTGPWLKKVLKCNTPDPSKFFSQLSSEHGGDVQKWLSSPFPSSSFSPGGLAPEISPLEVLERDKVTQLLL
notes: How it was constructed is not described; also called FLAG-HMK-IL-2Rβ S+; not shown: 17 amino acid FLAG-HMK tag
B2: the binding result (in the test with (His)6-Raf-1 protein; in test [1]) was “no binding” each time.

B3: FLAG-HMK-IL-2Rβ chain cytoplasmic domain wild type fusion protein (receptor, not shown: small tags and cut ends)
chain: NCRNTGPWLKKVLKCNTPDPSKFFSQLSSEHGGDVQKWLSSPFPSSSFSPGGLAPEISPLEVLERDKVTQLLLQQDKVPEPASLSSNHSLTSCFTNQGYFFFHLPDALEIEACQVYFTYDPYSEEDPDEGVAGAPTGSSPQPLQPLSGEDDAYCTFPSRDDLLLFSPSLLGGPSPPSTAPGGSGAGEERMPPSLQERVPRDWDPQPLGPPTPGVPDLVDFQPPPELVLREAGEEVPDAGPREGVSFPWSRPPGQGEFRALNARLPLNTDAYLSLQELQGQDPTHLV
notes: Made in BL-21 pLysS bacteria, about 33 kDa; also called FLAG-HMK-IL-2Rβ chain wild type (WT); FLAG-HMK-IL-2Rβ-WT
B3: in test [2], the binding result is on record as “binds”.
